B1: BBSome-interacting protein 1 (Homo sapiens), A8MTZ0 (parent)
chain: MLKAAAKRPELSGKNTISNNSDMAEVKSMFREVLPKQGPLFVEDIMTMVLCKPKLLPLKSLTLEKLEKMHQAAQNTIRQQEMAEKDQRQITH
partner: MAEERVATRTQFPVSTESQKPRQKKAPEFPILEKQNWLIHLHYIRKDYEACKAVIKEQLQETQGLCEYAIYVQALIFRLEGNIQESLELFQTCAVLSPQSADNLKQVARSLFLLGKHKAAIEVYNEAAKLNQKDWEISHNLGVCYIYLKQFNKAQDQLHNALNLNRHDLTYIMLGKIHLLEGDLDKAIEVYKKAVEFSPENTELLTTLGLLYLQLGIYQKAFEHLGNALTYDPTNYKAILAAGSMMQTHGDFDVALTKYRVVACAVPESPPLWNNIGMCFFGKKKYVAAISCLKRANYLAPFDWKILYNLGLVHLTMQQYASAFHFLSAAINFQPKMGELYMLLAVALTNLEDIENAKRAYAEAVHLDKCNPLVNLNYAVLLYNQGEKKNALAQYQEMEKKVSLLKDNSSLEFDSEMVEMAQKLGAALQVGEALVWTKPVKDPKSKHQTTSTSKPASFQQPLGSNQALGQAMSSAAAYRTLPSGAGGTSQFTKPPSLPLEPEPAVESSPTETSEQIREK

Variants of: B1
Conditions: with bbs4_human BBS4, Q96RK4

effect of a mutation on the interaction	Variant
with no effect	S12E
with no effect	S12K
with no effect	S12A
with no effect	P39E
with no effect	P39K
with no effect	P39A
with no effect	F30A
disrupting interaction strength	F30S
with no effect	F30E
with no effect	F30K
with no effect	L2K
with no effect	L2E
with no effect	L2A
with no effect	D22E
with no effect	D22A
with no effect	D22K
with no effect	I45A
with no effect	I45E
with no effect	I45K
with no effect	L55A
with no effect	L55K
with no effect	L55E
with no effect	E25K
with no effect	E25A
disrupting interaction strength	E32K

effect of a mutation on the interaction	Variant
with no effect	E32A
with no effect	K3A
with no effect	K3E
with no effect	P53E
with no effect	P53K
with no effect	P53A
with no effect	A24K
with no effect	A24E
with no effect	M48A
with no effect	M48K
with no effect	M48E
with no effect	V33A
with no effect	V33E
with no effect	V33K
with no effect	E10K
with no effect	E10A
disrupting interaction strength	P35S
with no effect	P35K
with no effect	P35A
disrupting interaction strength	P35T
disrupting interaction strength	P35R
with no effect	P35E
with no effect	S28K
with no effect	S28E
with no effect	S28A

effect of a mutation on the interaction	Variant
with no effect	P9E
with no effect	P9A
with no effect	P9K
with no effect	R8A
with no effect	R8E
with no effect	R8K
with no effect	S18A
with no effect	S18K
with no effect	S18E
with no effect	K54A
with no effect	K54E
disrupting interaction strength	K54Y
disrupting interaction strength	K54T
with no effect	A6K
with no effect	A6E
with no effect	L40K
with no effect	L40E
with no effect	L40A
with no effect	N15K
with no effect	N15A
with no effect	N15E
disrupting interaction strength	K36P
with no effect	K36A
with no effect	K36E
disrupting interaction strength	K36Y

effect of a mutation on the interaction	Variant
with no effect	T47K
with no effect	T47E
with no effect	T47A
disrupting interaction strength	T47R
with no effect	I17A
with no effect	I17E
with no effect	I17K
with no effect	M23K
with no effect	M23E
with no effect	M23A
with no effect	G13A
with no effect	G13E
with no effect	G13K
with no effect	K52A
with no effect	K52E
disrupting interaction strength	K52I
disrupting interaction strength	K52Y
disrupting interaction strength	L34A
disrupting interaction strength	L34H
disrupting interaction strength	L34P
disrupting interaction strength	L34R
disrupting interaction strength	L34D
with no effect	L34E
with no effect	L34K
with no effect	N19K

effect of a mutation on the interaction	Variant
with no effect	N19A
with no effect	N19E
with no effect	K7A
with no effect	K7E
with no effect	T16K
with no effect	T16A
with no effect	T16E
with no effect	A4E
with no effect	A4K
with no effect	S21E
with no effect	S21A
with no effect	S21K
with no effect	M29K
with no effect	M29E
with no effect	M29A
disrupting interaction strength	M29F
with no effect	L11E
with no effect	L11K
with no effect	L11A
with no effect	E43A
with no effect	E43K
with no effect	Q37K
with no effect	Q37A
with no effect	Q37E
with no effect	V49E

effect of a mutation on the interaction	Variant
with no effect	V49K
with no effect	V49A
with no effect	R31A
with no effect	R31K
with no effect	R31E
disrupting interaction strength	K14L
with no effect	K14E
with no effect	K14A
with no effect	N20K
with no effect	N20A
with no effect	N20E
with no effect	A5E
with no effect	A5K
with no effect	L50A
with no effect	L50K
with no effect	L50E
with no effect	C51E
disrupting interaction strength	C51S
with no effect	C51K
with no effect	C51A
with no effect	F41E
with no effect	F41K
with no effect	F41A
with no effect	V26A
with no effect	V26E

effect of a mutation on the interaction	Variant
with no effect	V26K
with no effect	D44E
with no effect	D44A
with no effect	D44K
with no effect	L56A
with no effect	L56E
disrupting interaction strength	L56F
with no effect	G38E
with no effect	G38K
with no effect	G38A
with no effect	M46K
with no effect	M46A
with no effect	M46E
disrupting interaction strength	M46F
with no effect	K27E
disrupting interaction strength	K27L
disrupting interaction strength	K27Y
disrupting interaction strength	K27S
with no effect	K27A
with no effect	M1A
with no effect	M1E
with no effect	M1K
with no effect	V42E
with no effect	V42K
with no effect	V42A

Source: IntAct's records for PubMed 29039417
